Experimental findings from patent US8298545B2, “Anti-autoimmune antibodies for treatment of pemphigus” (The Trustees of the University of Pennsylvania, priority 2007, dated 2012) are described below.

The assay relates to primary human epidermal keratinocytes. The experiment in a line: Keratinocyte dissociation (dispase) assay. It is filed as cell-based. To be noted: FIG. 5M-5O. As to the method: The keratinocyte dissociation assay was performed as previously described (Payne et al., 2005), using either PV scFv at 5 μg/mL or PV sera at dilutions of 1:5 to 1:7.5 in 500 μL total volume defined keratinocyte-serum free media (Gibco/Invitrogen). For antibodies that only recognize Dsg3, 1 μg/mL exfoliative toxin A (ETA) was added to wells for the last two hours. For antisera depletion assays, 200 μL of PV sera flowthrough (representing a volume of 100 μL, sera, combined with the first 1-volume fraction of the PBS wash) were incubated with cells in a total volume of 500 μL, with or without ETA treatment. Dissociation assays used the total eluate from the antisera columns, concentrated to a volume of 100 μl (representing a starting volume of 250 μL sera).
The question of whether the in vitro inhibition of Dsg binding by ELISA translated into a functional block of antibody pathogenicity was investigated. It was previously shown that neonatal mouse injection is suboptimal for evaluation of pathogenicity of PV mAbs, due to differences in the specificity of mAbs for human versus mouse Dsg substrates. Therefore, the inhibition of mAb pathogenicity was evaluated by a dispase assay using cultured primary human keratinocytes. […]

B1: Exfoliative toxin A: exfoliative toxin A, inactivates Dsg1 (protein, UniProt P09331 39-280, looked up)
Exfoliative toxin A: EVSAEEIKKHEEKWNKYYGVNAFNLPKELFSKVDEKDRQKYPYNTIGNVFVKGQTSATGVLIGKNTVLTNRHIAKFANGDPSKVSFRPSINTDDNGNTETPYGEYEVKEILQEPFGAGVDLALIRLKPDQNGVSLGDKISPAKIGTSNDLKDGDKLELIGYPFDHKVNQMHRSEIELTTLSRGLRYYGFTVPGNSGSGIFNSNGELVGIHSSKVSHLDREHQINYGVGIGNYVKRIINEKNE
Turning to B1, the “pathogenicity in the keratinocyte dissociation (dispase) assay” value is “do not demonstrate significant pathogenicity”.
